Results: patent publication US8435522 (Teva, dated 2013)

T1: CXCR3 (human cell surface protein CD183) (human, UniProt P49682 1-368)
T1 chain: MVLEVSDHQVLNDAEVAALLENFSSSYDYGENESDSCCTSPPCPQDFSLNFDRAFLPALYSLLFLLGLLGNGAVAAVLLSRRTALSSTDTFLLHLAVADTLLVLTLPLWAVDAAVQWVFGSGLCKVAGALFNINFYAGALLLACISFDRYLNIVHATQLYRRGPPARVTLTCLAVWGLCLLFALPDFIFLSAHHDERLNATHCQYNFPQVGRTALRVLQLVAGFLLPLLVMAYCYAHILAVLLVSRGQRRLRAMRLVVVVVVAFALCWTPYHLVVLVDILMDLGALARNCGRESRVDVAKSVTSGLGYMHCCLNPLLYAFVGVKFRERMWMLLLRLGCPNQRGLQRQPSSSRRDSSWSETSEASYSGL

T2: CXCR3 (human cell surface protein CD183) (human, UniProt P49682 1-368)
T2 sequence (looked up): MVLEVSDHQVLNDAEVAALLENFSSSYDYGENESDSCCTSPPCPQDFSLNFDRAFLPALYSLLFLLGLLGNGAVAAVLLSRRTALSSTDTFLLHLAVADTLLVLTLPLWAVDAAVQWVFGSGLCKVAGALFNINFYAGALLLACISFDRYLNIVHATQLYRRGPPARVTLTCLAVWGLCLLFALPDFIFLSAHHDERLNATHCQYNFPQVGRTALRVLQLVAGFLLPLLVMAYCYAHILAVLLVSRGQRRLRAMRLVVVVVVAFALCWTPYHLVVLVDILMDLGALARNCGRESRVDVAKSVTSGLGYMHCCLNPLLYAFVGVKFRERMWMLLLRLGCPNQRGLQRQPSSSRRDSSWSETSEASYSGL

T3: rat CXCR3 (on polarized rat Th1 cells) (rat, UniProt Q9JII9 1-367)
T3 construct: whole, on cells; the target meant is rat CXCR3
T3 sequence (looked up): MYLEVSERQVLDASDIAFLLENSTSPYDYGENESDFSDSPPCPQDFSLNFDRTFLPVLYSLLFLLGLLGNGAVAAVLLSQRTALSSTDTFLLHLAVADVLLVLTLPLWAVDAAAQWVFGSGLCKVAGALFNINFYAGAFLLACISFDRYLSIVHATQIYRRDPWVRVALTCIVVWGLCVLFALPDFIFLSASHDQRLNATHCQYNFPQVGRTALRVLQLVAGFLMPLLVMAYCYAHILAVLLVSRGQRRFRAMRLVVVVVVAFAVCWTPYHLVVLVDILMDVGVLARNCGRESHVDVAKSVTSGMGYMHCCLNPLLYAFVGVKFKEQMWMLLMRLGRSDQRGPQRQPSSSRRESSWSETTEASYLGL


Legend:
[1] = molecular target: T1, CXCR3 (human cell surface protein CD183); assay: 125I-CXCL11 binding inhibition on Th1 cells
[2] = molecular target: T2, CXCR3 (human cell surface protein CD183); assay: cell-based or functional assay
[3] = molecular target: T2, CXCR3 (human cell surface protein CD183); assay: cell-based or functional assay; remark: listed apart in the source
[4] = molecular target: T3, rat CXCR3 (on polarized rat Th1 cells); assay: FACS on polarized rat Th1 cells
Procedure: FACS analysis was performed to determine reactivity of mouse CXCR3mAb to polarized rat Th1 cells. Only rabbit anti-mouse CXCR3 Ab bound to rat Th1 cells. […] As a control, mouse anti-CXCR3mAb binding to human Th1 cells is also shown (bottom panel).
The parental mouse CXCR3mAb was tested for binding to polarized rat Th1 cells by FACS. Only rabbit anti-mouse CXCR3 Ab (positive control) bound to rat Th1 cells.

[5] = molecular target: T2, CXCR3 (human cell surface protein CD183); assay: competition with Eu-IP-10 binding to Th1 cells
[6] = molecular target: T2, CXCR3 (human cell surface protein CD183); assay: displacement of 125I-I-Tac binding to Th1 cells
[7] = molecular target: T2, CXCR3 (human cell surface protein CD183); assay: displacement of 125I-IP-10 binding to Th1 cells
Procedure: Figure 14: FIG. 14 illustrates expression of CXCR3 on Th1 cells. Th1 and Th2 cells were generated from cord blood and CXCR3 and CCR4 expression were determined by FACS. CXCR3 was present only Th1 cells. […] IC$50$ values were calculated using Prizm software. Lead candidates were highlighted in green. […] IC$50$ values were calculated using Prizm software. Lead candidates were highlighted in green.

[8] = molecular target: T2, CXCR3 (human cell surface protein CD183); assay: competition with Eu-V44 (Eu-labeled mouse CXCR3mAb) binding to Th1 cells
Procedure: Th1 cells were incubated in a 96 well plate with Eu-CXCR3mAb in the absence or presence of various concentrations humanized CXCRmAbs. After incubation (1 hr at RT), cell bound Eu-CXCR3mAb was separated from free Europium by washing three times and the plate was read using Vctor2 fluorometer. IC$50$ values were calculated using Prizm software. Ab1 has a heavy chain sequence of humanized anti-CXCR3 V44D7 VH Lead #5 amino acid and a light chain sequence of humanized anti-CXCR3 V44D7 VK Lead #1 (see Informal Sequence Listing) in an IgG1 backbone. Ab2 has a heavy chain sequence of humanized anti-CXCR3 V44D7 VH Lead #5 and a light chain sequence of humanized anti-CXCR3 V44D7 VK Lead #7 (see Informal Sequence Listing) in an IgG1 backbone. Humanized Ab (IgG4) has a heavy chain sequence of humanized anti-CXCR3 V44D7 VH Lead #5 and a light chain sequence of the original mouse anti-CXCR3 V44D7 VK in an IgG4 backbone. Figure 22: FIG. 22 illustrates inhibition Eu-CXC10 by humanized CXCR3Abs. […] After incubation (1 hr at RT), cell bound Eu-CXCL10 was separated from free Europium by washing three times and the plate was read using Vctor2 fluorometer. IC$50$ values were calculated using Prizm software. […] After 2 hr incubation at 37° C., cells migrated to the bottom wells were determined by cell titer glo method (Promega).

Binder	IC50 [1] [nM]	Inhibition of IP-10-induced Th1 chemotaxis, IC50 [2] [µg/mL]	Chemotaxis IC50 [3] [nM]	binding result [4]	IC50 [5] [nM]	IC50 [6] [nM]	IC50 [7] [nM]	IC50 [8] [nM]
CXCL11 (I-TAC, interferon-inducible T cell a-chemoattractant) (ligand, 125I label, site not stated) FPMFKRGRCLCIGPGVKAVKVADIEKASIMYPSNNCDKIEVIITLKENKGQRCLNPKSKQARLIIKKVERKNF	0.01	–	–	–	–	–	–	–
Mouse anti-CXCR3 V44D7 (antibody, V domains shown, also called V44D7A; Ab#5) VH: EVMLVESGGGLVKPGGSLKLSCAASGFTFSNYAMSWVRQTPEKRLEWVATISSGGGYTYYPDSLKGRFTISRDNAKNTLFLQMSSLRSEDTAVYYCVRHGAPMTTVITYAPYYFDYWGQGTTLTVSS VL: ENVLTQSPAIMSASLGEKVTMNCRASSSVKYMYWYQQKSDASPKLWIYYTSNLAPGVPARFSGSGSGNSYSLTISSMEGEDAATYYCQQFTTSPYTFGGGTKLEIK	–	0.035	0.09	no binding	0.14	0.1	0.13	0.29
Humanized Ab2 H5K7 (antibody, V domains shown, IgG1 backbone, human kappa) VH: EVQLLESGGGLVQPGGSLRLSCAASGFTFSNYAMSWVRQAPGKGLEWVSTISSGGGYTYYPDSLKGRFTISRDNSKNTLYLQMNSLRAEDTAVYYCAKHGAPMTTVITYAPYYFYYWGQGTTVTVSS VL: ENVLTQSPAFLSVTPGEKVTITCRASSSVKYMYWYQQKPDQAPKLWIYYTSNLAPGVPSRFSGSGSGNDYTFTISSLEAEDAATYYCQQFTTSPYTFGGGTKLEIK	–	–	0.28	–	0.35	–	–	1.82
